Data reported in patent publication US20200407424A1 (FRAUNHOFER GESELLSCHAFT ZUR F RDERUNG DER ANGEWANDTEN …, published 2020).
Like-named read-outs stand apart in the source and are kept apart here. One block for each binder: values may come before it. Square brackets hold non-standard residues; d marks the D form. Ends that are not written are not given here. Cit = NC(=O)NCCC[C@H](N)C(=O)O

Legend:
[1] = molecular target: T1, recombinant MHC class II protein of the HLA DRB1 0101 genotype (human); experiment: in vitro binding assay
T1 construct: construct not described

[2] = molecular target: T2, recombinant MHC class II protein of the HLA DRB1 0401 genotype (human); experiment: in vitro binding assay
T2 construct: construct not described; also called HLA-DR0401

[3] = molecular target: T3, recombinant MHC class II protein of the HLA DRB1 0404 genotype (human); experiment: in vitro binding assay
T3 construct: construct not described

[4] = molecular target: T4, recombinant MHC class II protein of the HLA DRB1 0405 genotype (human); experiment: in vitro binding assay
T4 construct: construct not described

[5] = molecular target: T5, recombinant MHC class II protein of the HLA DRB1 1001 genotype (human); experiment: in vitro binding assay
T5 construct: construct not described

[6] = molecular target: T1, recombinant MHC class II protein of the …; experiment: in vitro binding assay; remark: listed apart in the source
[7] = molecular target: T2, recombinant MHC class II protein of the …; experiment: in vitro binding assay; remark: listed apart in the source
[8] = molecular target: T3, recombinant MHC class II protein of the …; experiment: in vitro binding assay; remark: listed apart in the source
[9] = molecular target: T6, recombinant MHC class II protein of the HLA DRB1 0408 genotype (human); experiment: in vitro binding assay
T6 construct: construct not described

[10] = molecular target: T2, recombinant MHC class II protein of the …; experiment: binds MHC in vitro
[11] = molecular target: T1, recombinant MHC class II protein of the …; experiment: in vitro binding assay; remark: listed apart in the source
[12] = molecular target: T3, recombinant MHC class II protein of the …; experiment: in vitro binding assay; remark: listed apart in the source
[13] = molecular target: T4, recombinant MHC class II protein of the …; experiment: in vitro binding assay; remark: listed apart in the source
[14] = molecular target: T6, recombinant MHC class II protein of the …; experiment: in vitro binding assay; remark: listed apart in the source
[15] = molecular target: T5, recombinant MHC class II protein of the …; experiment: in vitro binding assay; remark: listed apart in the source
[16] = molecular target: T2, recombinant MHC class II protein of the …; experiment: in vitro binding assay; remark: listed apart in the source

B2: type II collagen peptide ref no 263 (peptide)
peptide: GDRGEAGAQGPMGPS
- binding result [5]: binds

B3: type II collagen peptide ref no 137 (peptide)
peptide: GEPGIAGFKGEQGPK
- binding result [1]: binds
- binding result [2]: binds
- binding result [3]: binds

B4: corresponding non-citrullinated peptide of a-enolase peptide 313 (peptide)
peptide: KRIAKAVNEKSCNCL
- binding result [6]: binds
- binding result [7]: binds

B5: corresponding non-citrullinated peptide of type II collagen peptide 411 (peptide)
peptide: GIVGLPGQRGERGFP
- binding result [7]: binds
- binding result [8]: binds

B7: citrullinated type II collagen peptide ref no 357 (peptide)
peptide: APGN[Cit]GFPGQDGLAG
- binding result [5]: binds

B8: citrullinated type II collagen peptide ref no 384 (peptide)
peptide: QGP[Cit]GLPGTPGTDGP
- binding result [9]: binds
- binding result [5]: binds

B10: citrullinated type II collagen peptide ref no 332 (peptide)
peptide: [Cit]GPPGPQGA[Cit]GFPGT
- binding result [2]: binds
- binding result [3]: binds
- binding result [4]: binds

B11: citrullinated a-enolase peptide ref no 291 (peptide)
peptide: TSKGLF[Cit]AAVPSGAS
- binding result [11]: binds
- binding result [13]: binds
- binding result [14]: no binding
- binding result [15]: binds
- binding result [7]: binds
- binding result [8]: binds

B12: corresponding non-citrullinated peptide of a-enolase peptide 287 (peptide)
peptide: MSILKIHAREIFDSR
- binding result [6]: binds
- binding result [7]: no binding
- binding result [8]: binds

B14: corresponding non-citrullinated peptide of type II collagen peptide 386 (peptide)
peptide: PGLQGMPGERGAAGI
- binding result [8]: binds

B16: corresponding non-citrullinated peptide of a-enolase peptide 297 (peptide)
peptide: RYMGKGVSKAVEHIN
- binding result [6]: binds
- binding result [7]: no binding

The remaining lines, values ahead:

- binding result [1]: binds
- binding result [2]: binds
- binding result [3]: binds
- binding result [4]: binds
B1: type II collagen peptide ref no 242 (peptide)
peptide: GIVGLPGQRGERGFP

- binding result [5]: binds
B6: type II collagen peptide ref no 268 (peptide)
peptide: PQGPRGDKGEAGEPG

- binding result [10]: binds
- binding result [11]: binds
- binding result [12]: binds
- binding result [13]: binds
- binding result [14]: binds
- binding result [15]: no binding
B9: a-enolase peptide ref no 66 (peptide)
peptide: KRIAKAVNEKSCNCL

- binding result [1]: binds
- binding result [2]: binds
B13: type II collagen peptide ref no 138 (peptide)
peptide: AGFKGEQGPKGEPGP

- binding result [11]: binds
- binding result [16]: no binding
- binding result [13]: binds
- binding result [14]: no binding
- binding result [15]: no binding
- binding result [8]: binds
B15: a-enolase peptide ref no 6 (peptide)
peptide: TSKGLFRAAVPSGAS
notes: also called corresponding non-citrinullated peptide of 291

- binding result [5]: binds
B17: citrullinated type II collagen peptide ref no 362 (peptide)
peptide: PKGANGDPG[Cit]PGEPG
